Source: publication PMC5092059

Key:
3H-gabapentin = 3H-gabapentin radioligand saturation binding; details: DRM fractions from transfected tsA-201 cells; n = 4
[1] = target: GFP-CaV2.2 (rabbit CaV2.2 with an N-terminal GFP) (rabbit) (UniProt Q05152)
Sequence of UniProt Q05152 (Q05152 whole entry): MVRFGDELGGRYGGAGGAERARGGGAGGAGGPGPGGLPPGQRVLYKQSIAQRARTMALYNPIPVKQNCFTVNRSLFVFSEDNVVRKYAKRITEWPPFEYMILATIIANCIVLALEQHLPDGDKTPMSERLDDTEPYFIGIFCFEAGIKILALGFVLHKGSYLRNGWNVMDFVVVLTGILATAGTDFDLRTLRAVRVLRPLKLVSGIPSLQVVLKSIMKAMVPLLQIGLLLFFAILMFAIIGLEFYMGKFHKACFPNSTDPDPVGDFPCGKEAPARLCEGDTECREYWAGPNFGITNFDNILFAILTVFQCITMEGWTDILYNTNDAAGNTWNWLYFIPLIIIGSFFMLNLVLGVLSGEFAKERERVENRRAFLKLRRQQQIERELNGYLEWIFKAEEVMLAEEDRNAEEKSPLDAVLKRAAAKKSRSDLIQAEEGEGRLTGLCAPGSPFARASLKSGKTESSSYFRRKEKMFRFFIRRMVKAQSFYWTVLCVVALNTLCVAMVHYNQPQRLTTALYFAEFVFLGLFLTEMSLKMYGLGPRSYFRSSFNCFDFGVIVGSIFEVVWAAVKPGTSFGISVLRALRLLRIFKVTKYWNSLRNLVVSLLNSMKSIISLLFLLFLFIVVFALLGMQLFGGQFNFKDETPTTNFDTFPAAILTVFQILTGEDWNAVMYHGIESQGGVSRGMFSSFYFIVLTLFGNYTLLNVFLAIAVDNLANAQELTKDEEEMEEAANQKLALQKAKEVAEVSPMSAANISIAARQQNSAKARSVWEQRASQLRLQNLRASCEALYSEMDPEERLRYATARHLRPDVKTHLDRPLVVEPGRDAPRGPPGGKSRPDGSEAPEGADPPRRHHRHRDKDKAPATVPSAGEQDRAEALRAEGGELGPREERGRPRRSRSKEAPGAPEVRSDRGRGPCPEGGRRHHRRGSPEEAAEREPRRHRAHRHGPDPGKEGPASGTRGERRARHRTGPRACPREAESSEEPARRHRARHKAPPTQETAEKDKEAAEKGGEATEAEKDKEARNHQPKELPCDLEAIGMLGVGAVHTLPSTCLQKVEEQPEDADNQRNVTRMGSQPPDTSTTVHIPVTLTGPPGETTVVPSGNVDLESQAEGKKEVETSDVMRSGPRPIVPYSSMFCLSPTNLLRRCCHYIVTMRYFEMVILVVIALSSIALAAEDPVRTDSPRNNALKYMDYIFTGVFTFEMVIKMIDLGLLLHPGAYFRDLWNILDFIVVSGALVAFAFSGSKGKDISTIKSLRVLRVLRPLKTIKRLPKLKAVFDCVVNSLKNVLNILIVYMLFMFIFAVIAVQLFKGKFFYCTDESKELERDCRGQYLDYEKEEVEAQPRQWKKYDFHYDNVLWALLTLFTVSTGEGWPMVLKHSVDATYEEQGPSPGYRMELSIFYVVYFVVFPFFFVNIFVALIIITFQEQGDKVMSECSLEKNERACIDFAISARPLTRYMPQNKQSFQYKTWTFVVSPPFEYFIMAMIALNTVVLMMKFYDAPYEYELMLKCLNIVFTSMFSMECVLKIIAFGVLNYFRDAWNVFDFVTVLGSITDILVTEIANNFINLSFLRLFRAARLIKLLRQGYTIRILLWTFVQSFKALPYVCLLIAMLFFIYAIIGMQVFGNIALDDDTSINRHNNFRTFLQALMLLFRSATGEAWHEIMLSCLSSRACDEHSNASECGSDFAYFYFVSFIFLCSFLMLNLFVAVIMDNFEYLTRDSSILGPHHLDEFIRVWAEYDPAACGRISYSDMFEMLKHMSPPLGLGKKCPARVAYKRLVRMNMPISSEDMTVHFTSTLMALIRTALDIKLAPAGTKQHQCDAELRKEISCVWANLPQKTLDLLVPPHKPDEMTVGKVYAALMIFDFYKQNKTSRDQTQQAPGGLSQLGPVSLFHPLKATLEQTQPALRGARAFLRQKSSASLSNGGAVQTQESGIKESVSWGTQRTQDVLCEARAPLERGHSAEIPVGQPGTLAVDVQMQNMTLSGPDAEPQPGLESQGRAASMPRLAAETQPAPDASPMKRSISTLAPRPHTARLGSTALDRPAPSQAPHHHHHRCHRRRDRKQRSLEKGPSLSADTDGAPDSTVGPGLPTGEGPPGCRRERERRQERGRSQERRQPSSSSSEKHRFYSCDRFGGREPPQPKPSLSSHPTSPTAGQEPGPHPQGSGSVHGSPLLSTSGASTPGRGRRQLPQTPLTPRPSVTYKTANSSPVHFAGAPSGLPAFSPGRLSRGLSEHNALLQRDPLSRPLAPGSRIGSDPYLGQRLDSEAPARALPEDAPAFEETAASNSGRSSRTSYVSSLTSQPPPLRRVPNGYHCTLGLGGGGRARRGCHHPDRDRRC

Substance	Kd (3H-gabapentin)	decrease in α2δ-1 immunostaining in hippocampal neurites after co-transfection with CaV2.2-HA/β1b, α2(3C)δ-1 relative to WT α2δ-1 [1]
wild type α2δ-1 (rat) (from UniProt P54290) LEAVEM replaced by VVVVVV (hexavaline, V6)	68.3 nM	
α2(3C)δ-1 (rat α2δ-1 with the endogenous cleavage motif replaced by a Human Rhinovirus 3C-protease site) (natural protein)		37%
